# Laboratory results: the domain aggregation screens of Martell et al. (2025)
# Assay: soluble fraction after stress (log2 fold change); higher = more stays soluble; pooled small domains, quantitative proteomics
# Settings: stress: 75 degC
# 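Further: 20 min heating vs room temperature control held 20 min.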
row,Sequence,soluble fraction (log2)
1,HMAAEGARNNSLFNSLRERALEVSSHNELEQIAFKMNETNIPPLRASEVISVVNSVWKNRISNQIIP,0.266
2,HMAAFGDLLSELRRDMNMTQDELAKVLFVSPGTISNYENNIHFPDVPKLKQIAQYFGVTTDYLLG,-0.519
3,HMAAINTYQVRKIYAIAGALGMKSRDGDDALHDLVFGMTGKQHISGLTSAEAYDVIAELEKKQ,-1.6
4,HMAALKVAVLTVSDTRTQETDTSGAFLEGALREAGHEIADRQIVIDDVYQLRAIVSQWIADPEVEVILT,-0.121
5,HMAALTADEAKQIALKHAGVAESDVQRLKVEQDRDDGRLLYEVEWDVGRTEYSYEIDANTGDILNYEKDV,-0.000944
6,HMAANKIDEDRNTELLQVIQNKFPDADAATKKSVKEIMKEHDIPNFKNADDIPTAVLEQIVKVLNQ,-0.378
7,HMAAPLTDRETEVLTLLARGLINKQIAEELHIGLTTVITHRRNIMEKLRVRSLAELILRAVAAGYVDAGR,-1.79
8,HMAARKDLIAGEDAEGRLDAWLAAALDGEFSRNRVKALIEQGAVAINDVAVTEPKRKIRPGDRLSIVLPEP,0.325
9,HMAARLMRALIPYAQGGLLAKLHEDGQVLSEEYTGEGIEVKALADEQLFGRLTVQLGEQAVSWQD,-0.163
10,HMAASTPGTVTGSVVNVRPDPSTNNDRIGVIYQGTKVEILAQVGEWYNIQFGPVSGWVHKDYISTGA,-0.421
11,HMAATISPEIQAEAEKAAALGVESIKNFMASLKEKNPEQHALFSDSEKRRLYAIARKADLNTTQQG,0.595
12,HMAAVPQPQRSETIVYIGGRKFYVHTVQAGETLYSIARLYGVSEQTLVANNPTMADVVKADQNVRIPVPA,-1.96
13,HMAAYRLIPLGNSNKDFETYQEAIQYMRDKLDESSKAFEEGKQNWVYSGRVYGVPWSDGRTTFTVDLVPKV,0.594
14,HMADASVTAYFKIAEDRLQGRLPDTFSEASLKARYQLTPAQLTAVLTRIAQEGWAERKPGYGWAFSSML,-1.62
15,HMADEIMYPVQVNGKVRAEIFVAADQSKNKELVLEMAKSEERVQKYLEEGNLIKEIFVPGRIVNLVI,0.162
16,HMADEIQIGLQKAIQSLPEKQKLVFSMRYYDEIPYDEMSKILDMSVGTLKTNYHYAKQKIEDFLQNH,-1.22
17,HMADFIGMNATVTERIFPQGFGRISFVYEGNSISEPARSEDGKEIPTGTSVVVLEVRDKVYIVQPL,-2.35
18,HMADGDIIPEGQRDATLASLAGSMRARGMTEAEILAALQVTNETRVRPPMALADLERIARSIGRYEPGK,0.0569
19,HMADKGTITNQQEKILKALILFPEGASIEEIQKAADLGIDKRQFQRRLNTLIESGQINRTGKSRGTKYHTI,0.201
20,HMADLKVGFVHRAGSVLERELDDVLEALEMYRSALAIDPSHKPSLDALTRISQLADYREQAAEILEPLPR,-0.767
21,HMADLNFHQQIRSLPPEQQEILLLRFGQELTLRQIAQVTGVPLRTVQSRLRAALKKLKSQLEKEE,-0.696
22,HMADLPQATALADVKGDVQMQGIQFGYDPEKIIIHDLNLHARPGSLVAIVGPTGAGKTTIINLLMRFYD,-1.75
23,HMADLVYLRKRLQDAIAQLPEDMRTAYTLFQIARRSIREIAELTGASESLVKVRIHRAKGKLQELLEDLR,-2.57
24,HMADPAVLIAELFRAMPEKRFSVKNLISATGAETREQKDYVREVVHSLSREGMIEQVAEGKYRLSASE,0.299
25,HMADQVLVMTRAVGQGDIVRNADIGLTSVAVDRAVATIPASQLDKIVGRHALVDLSPGQLLGSHSVGE,0.147
26,HMADRDKYIIMGQQLLRAAFEHFGKKATDKALENAANKLRISDVPELYARLGSAELQPRDVINVIFPD,-0.308
27,HMADRLITLSEVASLLRVSRHTVQAWISPSSPNHRPEFAIMARHAGRRTVFIEAEVTAWLDQRRG,-2.14
28,HMADVSPEAQHKMVEAFAQFGVTKEHIEQRIQRRLDAIQPAQMVTLKRIFASLRDGMSTPAEWFE,-0.639
29,HMADYSGYLGKKGKVIAPLRPAGTALIDGERVDVVSFGDYIDKDSEIEVVKIEGSKLLVKKY,0.28
30,HMAEAIVMSTAAPVKSSPDPQSKDIFVLHEGTKVAVGDSLGDWREIRIADGNKGWVLVSAIEMI,0.0397
